The values that follow come from PMC6780499, “Characterization, Recombinant Production and Structure-Function Analysis of NvCI, A Picomolar Metallocarboxypeptidase Inhibitor from the Marine Snail Nerita versicolor” (Marine Drugs, 2019).

Like-named read-outs stand apart in the source and are kept apart here. No end group written: not given here.

The target in test [1] is T1, bCPA1 (Bos taurus, UniProt P00730).
T1 sequence (P00730 111-419): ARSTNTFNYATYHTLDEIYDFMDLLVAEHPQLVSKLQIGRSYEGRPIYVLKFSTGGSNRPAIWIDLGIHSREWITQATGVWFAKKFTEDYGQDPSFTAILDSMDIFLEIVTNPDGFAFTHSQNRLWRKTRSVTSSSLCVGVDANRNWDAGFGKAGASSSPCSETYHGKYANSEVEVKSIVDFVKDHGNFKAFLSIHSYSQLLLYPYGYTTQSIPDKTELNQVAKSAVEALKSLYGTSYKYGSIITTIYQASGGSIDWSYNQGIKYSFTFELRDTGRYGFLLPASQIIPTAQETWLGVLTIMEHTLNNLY
The test is described as follows: Ki determination, tight-binding inhibition of metallocarboxypeptidase. Type of test: biochemical, bovine. The settings on record: natural isoforms; apparent Ki, without correction by competing assays; read-out: derived Ki towards bCPA (apparent Ki values). As to the method:
Inhibitory activities against CPA- and CPB-type forms (bovine and human variants of CPA1, CPA2, CPA4, CPB1, and TAFI) were assayed for all extracts, subject to the experimental conditions that enzyme (E), substrate (S) and inhibitor (I) concentrations as well as the [I]/[E] ratio and preincubation time followed the requirements for tight-binding inhibitor assays. Similar approaches were followed to measure the activities of proteases of different catalytic types, like pepsin, papain, trypsin and subtilisin [45, 46, 47, 48]. All assays were performed in triplicate at 25 °C in a multiplexed manner. For 96-well assays an iEMS spectrophotometer reader/dispenser FM (Labsystems, Finland) was used with a final reaction volume of 250 μL. For cuvette assays, a Cary 400 Bio spectrophotometer (Varian Inc., Palo Alto, CA, USA) spectrophotometer was used with a final reaction volume of 1 ml. The reactions were followed at 5 s intervals for 5 min and recorded as initial velocities. In the protease inhibition assays, mixtures of activity buffer, biological sample and enzyme were preincubated at 25 °C for 10min, before substrate addition. The assay conditions were as follows: for CPA-like enzymes, 7.0nM CPA, 0.1mM AAFP substrate in 20mM Tris-HCl pH 7.5, 500mMNaCl, 1% v/v dimethyl sulfoxide (DMSO), 0.05% w/v BRIJ-35 was used. For CPB-like enzymes, CPB 3.0nM CPB, 0.1mM AAFA substrate and activity buffer of 20 mM Tris-HCl pH [50].
The Ki values of natural and recombinant NvCI against bCPA1, hCPA1, hCPA2, rat CPA3, hCPA4, hCPB1, bTAFI, hTAFI, hCPD and hCPZ were determined by measuring the enzymatic residual activity (Vi/V0 = a) at different inhibitor concentrations and using a fixed enzyme and substrate concentrations as described above, where vi and v0 are the fraction of enzymatic activity in the presence and absence of inhibitor, respectively, in terms of initial velocities. The determination of Ki values was carried out on equilibrium conditions ([E0]/Ki ≤ 10), using a previously determined preincubation time of 15 min, required to establish enzyme-inhibitor equilibrium. Working temperature was 37 °C. The best estimates of Ki values were obtained by fitting the experimental data to the equation for tight-binding inhibitors by non-linear regression using the GraphPad Prisma 5 software (GraphPad Software, Inc., San Diego, CA, USA) at p < 0.05. The real Ki values against each of these A/B-type MCPs were calculated according to the equation described by Morrison and Copeland [19, 20].

For a further test, the system named is HepG2 cells. The test is described as follows: Cellular uptake by confocal laser scanning microscopy. It is filed as cell-based, human. The settings on record: HepG2, 20 µg/ml, 4 h at 37 °C, CLSM, LysoTracker and Hoechst staining. How it is done:
Recombinant NvCI was fluorescently labelled with an Alexa Fluor 488 Protein Labeling Kit (Molecular Probes, Eugene, OR, USA). HepG2 cells were seeded in a 35 mm glass-bottom culture dish (MatTek Corporation, Ashland, MA, USA) at a density of 4 × 10^5 cells/well and incubated for 24 h. The cells were incubated with 20 µg/ml Alexa 488-NvCI for 4 h at 37 °C. Prior to imaging, lysosomes and nuclei were stained with Lysotracker Red and Hoechst (Invitrogen, Carlsbard, CA, USA), respectively, for 90 or 10 min.

For another test, the target named is T2, hCPA1 (Homo sapiens, UniProt P15085).
T2 sequence (P15085 111-419): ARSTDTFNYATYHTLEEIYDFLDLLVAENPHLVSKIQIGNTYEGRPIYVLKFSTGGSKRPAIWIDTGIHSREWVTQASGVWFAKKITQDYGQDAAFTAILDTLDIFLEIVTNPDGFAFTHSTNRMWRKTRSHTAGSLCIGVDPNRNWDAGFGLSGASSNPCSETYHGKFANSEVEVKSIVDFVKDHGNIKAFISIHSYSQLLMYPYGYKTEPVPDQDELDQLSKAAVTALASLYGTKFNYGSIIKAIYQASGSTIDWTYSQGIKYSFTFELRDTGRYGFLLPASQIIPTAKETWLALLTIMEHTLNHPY
The settings on record: cited from earlier work. The source says:
(§1) Table 2 Ki values of various proteinaceous metallocarboxypeptidases (MCPs) inhibitors. | column: Ki (nM) / rPCI (a); Ki (nM) / rTCI (b); Ki (nM) / rLCI (c); Ki (nM) / rACI (d); Ki (nM) / rhuman latexin (e)

Test [2] addresses T1, bCPA1. The settings on record: cited from earlier work.
Text: as §1

For a further test, the target named is T3, hCPA2 (Homo sapiens, UniProt P48052).
T3 sequence (P48052 115-419): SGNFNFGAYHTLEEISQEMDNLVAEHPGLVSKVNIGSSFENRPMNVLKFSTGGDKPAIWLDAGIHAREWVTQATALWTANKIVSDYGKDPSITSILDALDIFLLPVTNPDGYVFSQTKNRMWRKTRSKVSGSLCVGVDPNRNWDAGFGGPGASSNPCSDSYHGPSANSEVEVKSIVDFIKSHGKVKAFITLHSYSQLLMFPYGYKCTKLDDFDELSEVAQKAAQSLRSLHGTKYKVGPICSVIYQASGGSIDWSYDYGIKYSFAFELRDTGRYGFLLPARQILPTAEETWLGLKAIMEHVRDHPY
As to conditions: cited from earlier work.
Text: as §1

The target in a further test is T4, hCPA4 (Homo sapiens, UniProt Q9UI42).
T4 sequence (Q9UI42 114-421): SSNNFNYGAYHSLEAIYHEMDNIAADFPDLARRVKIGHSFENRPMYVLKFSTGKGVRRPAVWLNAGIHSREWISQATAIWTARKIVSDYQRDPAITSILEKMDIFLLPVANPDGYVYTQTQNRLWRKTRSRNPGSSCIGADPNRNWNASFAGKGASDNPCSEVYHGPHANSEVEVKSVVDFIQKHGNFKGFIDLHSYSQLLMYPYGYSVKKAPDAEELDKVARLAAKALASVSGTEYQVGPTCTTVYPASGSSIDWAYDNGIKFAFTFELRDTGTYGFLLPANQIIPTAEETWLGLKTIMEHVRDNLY
The settings on record: cited from earlier work.
Text: as §1

The target of another test is T5, hCPB (Homo sapiens, UniProt P15086).
T5 sequence (P15086 111-417): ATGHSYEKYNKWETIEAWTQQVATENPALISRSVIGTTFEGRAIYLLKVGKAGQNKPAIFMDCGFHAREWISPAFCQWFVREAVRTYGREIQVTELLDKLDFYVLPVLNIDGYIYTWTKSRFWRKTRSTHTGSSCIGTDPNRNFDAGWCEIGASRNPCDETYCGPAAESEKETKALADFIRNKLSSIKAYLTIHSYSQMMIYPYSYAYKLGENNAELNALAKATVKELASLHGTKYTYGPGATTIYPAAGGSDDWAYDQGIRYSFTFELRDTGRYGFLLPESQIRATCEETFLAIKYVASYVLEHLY
As to conditions: cited from earlier work. From the text:
Table 2 Ki values of various proteinaceous metallocarboxypeptidases (MCPs) inhibitors. | column: Ki (nM) / rPCI (a); Ki (nM) / rTCI (b); Ki (nM) / rLCI (c); Ki (nM) / rhuman latexin (e)

The target in a further test is T6, pCPB (Sus scrofa, UniProt P09955).
T6 sequence (P09955 111-416): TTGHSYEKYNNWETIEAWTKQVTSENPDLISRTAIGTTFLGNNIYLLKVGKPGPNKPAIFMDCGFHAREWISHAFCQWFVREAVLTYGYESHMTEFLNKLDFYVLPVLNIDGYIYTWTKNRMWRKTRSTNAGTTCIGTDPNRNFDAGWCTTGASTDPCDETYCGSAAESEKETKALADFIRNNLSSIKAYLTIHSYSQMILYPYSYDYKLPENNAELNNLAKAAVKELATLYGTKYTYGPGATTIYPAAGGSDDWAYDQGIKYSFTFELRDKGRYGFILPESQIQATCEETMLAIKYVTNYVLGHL
The settings on record: ref Arolas et al., 2004 [21]; cited from earlier work. The source says:
Table 2 Ki values of various proteinaceous metallocarboxypeptidases (MCPs) inhibitors. | column: Ki (nM) / rPCI (a); Ki (nM) / rTCI (b); Ki (nM) / rLCI (c)

The next test addresses T7, hTAFI (Homo sapiens, UniProt Q96IY4).
T7 sequence (Q96IY4 115-423): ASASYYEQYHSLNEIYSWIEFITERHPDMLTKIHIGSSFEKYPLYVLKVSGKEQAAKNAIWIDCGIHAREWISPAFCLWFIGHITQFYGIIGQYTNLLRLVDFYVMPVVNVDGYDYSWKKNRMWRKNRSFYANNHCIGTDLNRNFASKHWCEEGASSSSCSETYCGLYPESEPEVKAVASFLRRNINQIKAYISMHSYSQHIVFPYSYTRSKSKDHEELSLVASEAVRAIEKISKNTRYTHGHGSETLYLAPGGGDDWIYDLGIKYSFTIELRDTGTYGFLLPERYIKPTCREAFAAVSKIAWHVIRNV
The settings on record: cited from earlier work. From the text: Table 2 Ki values of various proteinaceous metallocarboxypeptidases (MCPs) inhibitors. | column: Ki (nM) / rPCI (a); Ki (nM) / rTCI (b); Ki (nM) / rACI (d); Ki (nM) / rhuman latexin (e)

“NvCId: minor natural isoform, lacks the N-terminal Phe as compared to NvCIb (HVPDDRPCIKPGRCPLVPDATCTFVCKAADNDFGYECQHVWTFEGQRVGCYA; three intrachain disulphides)”: the Ki with bCPA1 [1] is 0.022 ± 0.001 nM.
The same measure, in the same setting: then “NvCIb: natural isoform of NvCI with N→K substitution at the 11th residue (FHVPDDRPCIKPGRCPLVPDATCTFVCKAADNDFGYECQHVWTFEGQRVGCYA; three intrachain disulphides)”, with 0.038 ± 0.002 nM.
For “Alexa488-labelled NvCI: recombinant NvCI fluorescently labelled with an Alexa Fluor 488 Protein Labeling Kit (FHVPDDRPCINPGRCPLVPDATCTFVCKAADNDFGYECQHVWTFEGQRVGCYA; ends and bridges not checked; also: Alexa Fluor 488 label; UniProt P86912 1-53, looked up)”, the “cellular uptake / internalization” value in the test with HepG2 cells was “internalized NvCI was distributed through the cytoplasm”.
For the molecule “NvCIc: minor natural isoform, lacks the N-terminal Phe as compared to NvCIa (HVPDDRPCINPGRCPLVPDATCTFVCKAADNDFGYECQHVWTFEGQRVGCYA; three intrachain disulphides)”, the Ki in the test with bCPA1 [1] stood at 0.049 ± 0.002 nM.

B1: rLCI: recombinant carboxypeptidase inhibitor from the medical leech Hirudo medicinalis (protein, UniProt P81511 16-81, looked up)
Metallocarboxypeptidase …: SHTPDESFLCYQPDQVCCFICRGAAPLPSEGECNPHPTAPWCREGAVEWVPYSTGQCRTTCIPYVE
Regarding B1, the Ki is 1.3 ± 0.4 nM with hCPA1 (ref Arolas et al., 2004 [21]); 1.1 ± 0.2 nM with bCPA1 [2] (ref Arolas et al., 2004 [21]); 4.5 ± 0.6 nM with hCPA2 (ref Arolas et al., 2004 [21]); 7.3 ± 0.4 nM in the test with hCPA4 (ref Tanco et al., 2010 [22]); 1.2 ± 0.3 nM with hCPB (ref Arolas et al., 2004 [21]); 2.4 ± 0.5 nM in the test with pCPB.

B2: rACI: recombinant carboxypeptidase inhibitor from the intestinal parasite Ascaris suum (protein)
chain: VRKCLSDTDCTNGEKCVQKNKICSTIVEIQRCEKEHFTIPCKSNNDCQVWAHEKICNKGCCWDLL
modifications: intrachain disulphides
In the case of B2, the Ki with hCPA1 (ref Sanglas et al., 2009 [10]) was 1.6 ± 0.2 nM; with bCPA1 [2] (ref Sanglas et al., 2009 [10]), 2.4 ± 0.3 nM; with hCPA2 (ref Sanglas et al., 2009 [10]), 2.5 ± 0.2 nM; with hCPA4 (ref Sanglas et al., 2009 [10]), 23.9 ± 3.1 nM; in the test with hTAFI (ref Sanglas et al., 2009 [10]) it was 42 ± 1.7 nM.

B3: rhuman latexin: recombinant human latexin, larger (19–22 kDa) endogenous protein inhibitor of carboxypeptidases (protein, UniProt Q9BS40 1-222, looked up)
Latexin: MEIPPTNYPASRAALVAQNYINYQQGTPHRVFEVQKVKQASMEDIPGRGHKYHLKFAVEEIIQKQVKVNCTAEVLYPSTGQETAPEVNFTFEGETGKNPDEEDNTFYQRLKSMKEPLEAQNIPDNFGNVSPEMTLVLHLAWVACGYIIWQNSTEDTWYKMVKIQTVKQVQRNDDFIELDYTILLHNIASQEIIPWQMQVLWHPQYGTKVKHNSRLPKEVQLE
Regarding B3, the Ki with hCPA1 (ref Pallarès et al., 2005 [15]) was 1.6 ± 0.2 nM; with bCPA1 [2] (ref Pallarès et al., 2005 [15]), 1.2 ± 0.2 nM; with hCPA2 (ref Pallarès et al., 2005 [15]) it was 3.5 ± 0.3 nM; with hCPA4 (ref Pallarès et al., 2005 [15]), 3 ± 0.3 nM; with hTAFI (ref Pallarès et al., 2005 [15]), 1.8 ± 0.3 nM; in the test with hCPB (ref Pallarès et al., 2005 [15]), 1.1 ± 0.1 nM.
